Experimental data reported in the DeepSol protein solubility set.

Test: soluble on expression in E. coli; label from the status in PepcDB or PDB records

| Sequence | soluble on expression in E. coli |
| --- | --- |
| MNVPFWTEEHVRATLPERDAESHKGTYGTALLLAGSDDMPGAALLAGLGAMRSGLGKLVIGTSENVIPLIVPVLPEATYWRDGWKKAADAQLEETYRAIAIGPGLPQTESVQQAVDHVLTADCPVILDAGALAKRTYPKREGPVILTPHPGEFFRMTGVPVNELQKKRAEYAKEWAAQLQTVIVLKGNQTVIAFPDGDCWLNPTGNGALAKGGTGDTLTGMILGMLCCHEDPKHAVLNAVYLHGACAELWTDEHSAHTLLAHELSDILPRVWKRFELEHHHHHH | soluble |
| MGSDKIHHHHHHMARKKNTSDQSRSQAANTPIAGTYEGEYSVIELEADSYTTDGWLISINGVPSSHIVLGQPQALEFEYMRWIATGARAFIDAHQDASKLRITHLGGGACTMARYFADVYPQSRNTVVELDAELARLSREWFDIPRAPRVKIRVDDARMVAESFTPASRDVIIRDVFAGAITPQNFTTVEFFEHCHRGLAPGGLYVANCGDHSDLRGAKSELAGMMEVFEHVAVIADPPMLKGRRYGNIILMGSDTEFFSSNSTEASAITRELLGGGVPAQYKDESWVRKFASGAQARHDGVSTLQMPSDTPQHPAETPEHSNTQP | not soluble |
| GSHMLHWGPKYWRSLHLYAIFFSDAPSWKEKYEAIQWILNFIESLPCTRCQHHAFSYLTKNPLTLNNSEDFQYWTFAFHNNVNNRLNKKIISWSEYKNIYEQSILK | soluble |
| MRSALSLKPSNGNAAKSQAVNNKNVIKNAPLGGKLTRQIGTSNLLQQALPSKKIDESPIIKIDAKDSFKVFEDQEPEKENSSENVDATEKDSNVIPAEDNNMIHELERKMEEKSRAEKLKFKFMQTRDNSDITSRFSEPPSEFSVLCDDDDCDKVSVASSTFTTSVRATFSSFHFDENQRKKEFGKEEAVKKIQKKAAKEARDDSMFSSEEFFPDIIKYMLHRQTKNRASHECFDIQSQVNEEMRTILIDWFSDVVKEYNFQKETFHLAVSLVDRALSMFNIDKMRFQLVGTTSMMIAVKYEEIFPPEIEDFALITDNTYRVPDILLMERFLLGKFDFVVAMPTSSWFGTCFAKRMNFTKKMRNTVHYLLELSLIDVHFLRYRPSDIAAAACCFANLQADVESWPQKMVDDTGISTEDFVDVLRDLHRMYLNASTADFKSIFYNYSETAQMEVALLPAPTDKLRSMFPSIFVTAPKSSNDSSSPQ | not soluble |
| MGSDKIHHHHHHVERIETHDATPGVVVEALTRGPGAICIRGLFSESQIAEARRVVMAHSEDRAQTVTHFQGQAAEEQRLHLQRRVWNLLAKGGVFSEMSEQPVIVGAMRRFLGDDFIMGSIAANRILPGGPGQEPHIDYPYWDYHMPDTFPLGINTSFALNAQVTIPLDPFTAETGATAFVPHTQHELRYPAEGDRFFERCQRMTAEPGDAIVFFGATWHCAMPNRSTQDRSAVLIQYLPKFVKPMEDLRAMVGEDFVRRASPTMRQLLGLNFPYPQNLDEIAVATNAEGRKNAMR | not soluble |
| MTDEERIELQQNNPLHGLKLETMLQELVDFYGWDILDTAMRFNCFNTKPSIASSVKYLKKTEWAREKLENFYLYRFKRMPRASEEEYNLPPRARTFPHGLEPKEPMPLTVDSILNSQAKAASSFKKRSSRGRPTRRLEHHHHHH | soluble |
| MGSDKIHHHHHHMVIGQKVLLARIPKMGDNYSTYLLDIEGTVCPISFVKETLFPYFTNKVPQLVQQDTRDSPVSNILSQFHIDNKEQLQAHILELVAKDVKDPILKQLQGYVWAHGYESGQIKAPVYADAIDFIKRKKRVFIYSSGSVKAQKLLFGYVQDPNAPAHDSLDLNSYIDGYFDINTSGKKTETQSYANILRDIGAKASEVLFLSDNPLELDAAAGVGIATGLASRPGNAPVPDGQKYQVYKNFETL | soluble |
| MTLGLKDLYYAVCTEADGAESYGTPKKMAEAMSADLSVKTADGSLYADDTLSESVTEFASGTLKLGIKDLTPEVLAELLGQAVDKNSVVWAGKEDEPPYVAVGFRAKKTGGKYRYVWLLKAKFKVPSEKYETKGESIKFNTPDIEASFTTRKKDNLWKADFVGTEESAAAKTWFTAVPEKAAAMESVLEHHHHHH | soluble |
| MNPVHILAKKGEVAERVLVVGDPGRARLLSTLLQNPKLTNENRGFLVYTGKYNGETVSIATHGIGGPSIAIVLEELAMLGANVFIRYGTTGALVPYINLGEYIIVTGASYNQGGLFYQYLRDNACVASTPDFELTNKLVTSFSKRNLKYYVGNVFSSDAFYAEDEEFVKKWSSRGNIAVEMECATLFTLSKVKGWKSATVLVVSDNLAKGGIWITKEELEKSVMDGAKAVLDTLTS | soluble |
| MDPVFSRLLETANSVILGKEQPIRLCICCLLARGHLLIEDVPGVGKTTLARTLAALLGLKYQRIQFTSDLLPADVLGSSIYDATTHGFRFHPGPVFNPMVLADEINRSTPRAQSALLEAMEERQVTVEGETRPLPEPFFVIATQNPNTQIGTFPLPESQLDRFLMRIELGYPDPRAERELLMGEERYALLPQLPVCLPAERLLALQSRVRDVHASSALLDYVQALLHFSRESPLYQNGLSPRAGLALLHAAKAWALMDGRAAVLPEDIQAVLPPVAGHRLKLASGGGGMAETVAPLLRDVAIPLEHHHHHH | not soluble |
| MGHHHHHHSHMFVYLNPNPKNTLRIDAEALTETRRLAARAWDLKYQMTKQGMHQRMLRAELDNLEILERGHSAALTTNLSLLANVLLDQPAPPDPTQGEEKGLPPSSRVESRTEGVYTVTVYPGDPAFEIQDSLPQKIWPMLYLHQQRWLPSYGPWHIRFTSSAMQLRNFPRSLRGQANFQNSMSLKLITALTDVISRISLDFYSDLRHLSDTMSALCLIAAYYSEKNQTPLPTNLPELLGNITAKVTLLVRDLKRAAANKGFNFNRNSSSLLPAQGGLYSNDFFQEHALYSLFRTAGMLASSSSPEYPRADSVLAITAAVFGDNIPPFAAYQWNLRSGLKALESLILLFLLLDVNVPATSNKRLHLEALLGESYSKGSRPPARRTGPLDAGGSVFSFLMENYLVPTLLHRPTTNMSALFPGLYLLQLEFSSGASTPHAIHLTDVKFRDIFNILVQSNVFQDSQELIRAKQSLRVSCETGSGNLLESLSPGTTMRDIIRKEFMAQDVYDYVYFCVLGALPVTVAVV | not soluble |
| MGYKPTQRDIVIIDFAPSKGYEIRKRRPALVMSKDSYNISTNLVIVCPITSLDKERPFLVPIYSEKLHTSDNAVSKVNTLQVYSLDYTEQAQRRIKYVDTLDEETFYEIAQKFLQNFSFAV | not soluble |
| MMAQEISNLVKKYNVTWQQTMLRIYDPKETVEFYEKNFGMINIHTYHFNEYNFSLYFLITPPYDEEERKKLPEPNTKESEKYLWNLNTVCLELTYNHNSQEKLSNGNNENDRGFGHIAFNCNDVIEQCDNLFKKNVKFHKLPHETKMKTIGFALDPNNYWIEIVKRSNQVKWKNYKNITNFSQTMIRVKNPEKSLYFYIHILGMKLIHVKHCSDFSLYFLKSNYACAENNKEMIEDQSNKNTNEIYDFNSLKNSYQTDEDYENFKQSWEPVLELTHNHGTEDDDNFSYHNGNTEPRGFGHIGFLVNDLENYCKELETLNVTFKKKVTEGLMKNIAFIYDPDNYVIELIQRDTSFIAK | not soluble |
| MLRKQARQRREYLYNKALTERLKSKQKIQETVVKSINENKAIGSKNVKKSLTAYKSLKYADEGVDDRTVNDEYHYAGCEDPKIMLTTSHNPSSRLKMFMKELRLIIPNAQQMNRGNYQLTTLMHACRANNVTDFLIVHEHRGIPDSLVVCHLPYGPTAFFNISDVVMRHDIPDIGHMSEQKPHLIFNNFKTPIGLRTVKILKHLFPVPKENSQRVMSFLNHNDSIIFRHHQYKYVNKELELTEVGPRFSLKLYQIKLGTLENIKAADTEWINRPYMNTSQKRLIFSNDPGIINKDTEALEHHHHHH | soluble |
| MIQDTRPLIRVVAGILLDSDGNYLLSSRPEGKPYAGYWEFAGGKVEAGETDFQALQREFEEELGIRILAATPWLTKIHSYEHARVCLKFLWVNPDQWTGKPQSREGQEWSWQKAGDFTVAPMLPANGALLRSLSVPRRLYGSLKTGLHGENSMGAYRVLPLGSAEGSGANVLMEAAQWQDRPEHADSVWMVVQTREQWRRAQEKGADAVVWRVCDDVQAQEAAEALRQGVSVPLVLAANGQTVARYGKLWLGLGAHVVVRDETIGKNHE | not soluble |
| MQTVGSFSEFLDDMVGRYGPRPAIQYRPRYRTLRWSYLELGTHAAKLASLLDEHGVGSGDRVFLSAENSPHWVAAFFAIAARGAVIVPLNPRSPPEQLANLVRSAGPSLVLASPRRRWEGPPLPVVDIERSGRVPSNRPATRTGPARLAEIIYTSGTTGDPKGVMLTHANLLSDLSAVARAIPLAPDDHVLSLVPLFHVYGQMTSLFCPLAAGCPVSYLTTPTTRSVLEALTHTPVTHLVAVPEVLKTMMDRLESRIGRIPGFLWPLLRGRIRARISGSLRTIVCGGAPLDPVVEEKWWALGFQVLQGYGLTETSPVIAANTPQAHRIGSVGKPLDEVELRIASDGEILVKGPMVMAGYFRDPARTEAAFADGWLKTGDAGRLDADGFLYVYGRKRYMILGPGGENVFPEDIEAVLNRTAGVTDCAVVGLESGGRTLVHAVLLADADEARAAAIVAEANRHLAPHQRIVSWSLWPEPDFPRSVTRKVKKDEVLGRLRREPSTQAVPVGRSTPLRLLLAQVAGTEAGALSDDTRLVPDLGLDSLLRIELVARIEEDLGVCLDEIDIGPLTTVADLENLLVRRQDRMPRVDAHPRWSLSPWASRLRPLAQKVFLQWWIAPFCRLRVSGLEHLAALDGPVIFMANHRSYLDSAVASFALPDRFRYRLAIAAATGVLYTRYRWAVPIGELSLNAFPLPSGPDENIRPGLELIGRLLDDGWNVLIFPEGQMNRGGLGIQPLRRGAGTIGVDMGVPVVPLVIEGTEKVMPPGRIVPRAAAPVSVRFGAPLRAGEAEPHGRMLARIEDALRRLLENSPLEHHHHHH | not soluble |
| MGSDKIHHHHHHFNQYRENVELTAQRLEATYRASNILNLGVACLKKHFGFLGMEINWSTGSVTWFDDFRKRVLLQSDGDAWENVFSLLDTEKYYNLSSDIDFSTEASKLGFSNFEAVAIPFKNNPFFALLVVRAQVGKAVVYKYAVLSSDFLNKYAYFTEKETRPDGDKIYFITQDIIDGPFRSNDVIHVKGEPLFKGSVEFKDIDLEAGEGPRYENPPPKYLTEEDIKKYNIEKIKDYYSQQIERIVKPASEVVLSSEPVGIELPSINEFVESWEEKENDKTIYYKKQREIVYTLEFNTPKGSSGNDYLIKVSYKEVYRIYKSEDQEKWNFVREEVLGEGELFHIKSKPNSDQYHLVLQGNEAREFLGLDRNEYDIYFNGVIKTDNDVYLKNMSEGNIKPMFVDGRYTIVANNIYIEDHIIYNDYREVLEEIADKEKISGNSDQKIAQAVIRKLGVDGNIEEDYSELLKNHESDDFLNLVAYKNVVITDKKPNMKIFASIYAFTGSFYVKGYNEKDFLKNNERELTERELTIFGSLAQYVRGAVGTFYWSRDGKPTIKTGYRKNYIYDWRILKGFSVFGTPTVPKESNILNVREVY | not soluble |
